Data taken from patent publication US20250263504A1 (Takeda / Millennium, published 2025).

T1: Factor XIIa (FXIIa) (UniProt P00748 20-372; P00748 373-615, limits assumed)
T1 construct: the description speaks of human FXIIa; also called active Factor XII
T1 sequence (looked up) 1: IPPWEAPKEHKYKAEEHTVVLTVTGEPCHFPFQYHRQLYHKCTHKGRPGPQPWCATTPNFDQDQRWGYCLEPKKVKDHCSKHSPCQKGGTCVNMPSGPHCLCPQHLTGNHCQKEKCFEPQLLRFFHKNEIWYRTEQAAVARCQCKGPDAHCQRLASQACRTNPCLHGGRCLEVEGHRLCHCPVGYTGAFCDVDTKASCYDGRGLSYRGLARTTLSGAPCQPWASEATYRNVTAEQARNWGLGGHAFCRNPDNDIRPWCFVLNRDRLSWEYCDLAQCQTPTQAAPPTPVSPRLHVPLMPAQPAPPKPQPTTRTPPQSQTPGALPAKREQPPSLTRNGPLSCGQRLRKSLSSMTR
T1 sequence (looked up) 2: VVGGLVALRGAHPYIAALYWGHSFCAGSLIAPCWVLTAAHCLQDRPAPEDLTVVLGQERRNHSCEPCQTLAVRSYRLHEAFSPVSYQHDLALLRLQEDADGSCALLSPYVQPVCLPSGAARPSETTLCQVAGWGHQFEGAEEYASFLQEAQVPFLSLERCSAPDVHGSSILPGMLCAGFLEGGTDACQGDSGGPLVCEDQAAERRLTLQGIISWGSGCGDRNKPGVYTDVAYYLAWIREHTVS

B1: 620I-X0136-D06 (bispecific antibody)
heavy: not shown
light: DIQMTQSPSTLSASVGDRVTITCRASQSISSWLAWYQQKPGKAPKLLIYKASTLESGVPSRFSGSGSGTEFTLTISSLQPDDFATYYCQQYNTYWTFGQGTKVEIKRTVAAPSVFIFPPSDEQLKSGTASVVCLLNNFYPREAKVQWKVDNALQSGNSQESVTEQDSKDSTYSLSSTLTLSKADYEKHKVYACEVTHQGLSSPVTKSFNRGEC
notes: also called 620I-X136-D06
B2: 620I-X0139-G02 (bispecific antibody)
heavy: not shown
light: B1 light
notes: also called 620I-X139-G02
B3: 620I-X0136-F11 (bispecific antibody)
heavy: not shown
light: B1 light
notes: also called 620I-X136-F11
B4: 620I-X0136-G08 (bispecific antibody)
heavy: not shown
light: B1 light
notes: also called 620I-X136-G08
B5: 620I-X0138-A02 (bispecific antibody)
heavy: not shown
light: B1 light
notes: also called 620I-X138-A02
B6: 620I-X0142-A10 (bispecific antibody)
heavy: not shown
light: B1 light
notes: also called 620I-X142-A10
B7: 620I-X0136-E05 (bispecific antibody)
heavy: not shown
light: B1 light
notes: also called 620I-X136-E05
B8: 620I-X0137-B08 (bispecific antibody)
heavy: not shown
light: B1 light
notes: also called 620I-X137-B08
B9: 620I-X0138-A12 (bispecific antibody)
heavy: not shown
light: B1 light
notes: also called 620I-X138-A12
B10: 620I-X0142-E09 (bispecific antibody)
heavy: not shown
light: B1 light
notes: also called 620I-X142-E09
B11: 620I-X0138-A01 (bispecific antibody)
heavy: not shown
light: B1 light
notes: also called 620I-X138-A01
B12: 620I-X0136-G04 (bispecific antibody)
heavy: not shown
light: B1 light
notes: also called 620I-X136-G04
B13: 620I-X0136-G05 (bispecific antibody)
heavy: not shown
light: B1 light
notes: also called 620I-X136-G05
B14: 620I-X0136-D12 (bispecific antibody)
heavy: not shown
light: B1 light
notes: also called 620I-X136-D12
B15: 620I-X0136-F07 (bispecific antibody)
heavy: not shown
light: B1 light
notes: also called 620I-X136-F07
B16: 620I-X0142-A11 (bispecific antibody)
heavy: not shown
light: B1 light
notes: also called 620I-X142-A11
B17: 620I-X0136-G10 (bispecific antibody)
heavy: not shown
light: B1 light
notes: also called 620I-X136-G10
B18: 620I-X0137-C08 (bispecific antibody)
heavy: not shown
light: B1 light
notes: also called 620I-X137-C08
B19: 620I-X0138-A08 (bispecific antibody)
heavy: not shown
light: B1 light
notes: also called 620I-X138-A08
B20: 620I-X0136-E07 (bispecific antibody)
heavy: not shown
light: B1 light
notes: also called 620I-X136-E07
B21: 620I-X0137-A10 (bispecific antibody)
heavy: not shown
light: B1 light
notes: also called 620I-X137-A10

target: T2, plasma kallikrein (pKal) (UniProt P03952 20-390; P03952 391-638, limits assumed); experiment: enzyme inhibition, corrected Ki,app
T2 construct: the description speaks of human pKal; also called active pKal
T2 sequence (P03952 20-390 limits assumed, form in doubt, chain 1 of 2): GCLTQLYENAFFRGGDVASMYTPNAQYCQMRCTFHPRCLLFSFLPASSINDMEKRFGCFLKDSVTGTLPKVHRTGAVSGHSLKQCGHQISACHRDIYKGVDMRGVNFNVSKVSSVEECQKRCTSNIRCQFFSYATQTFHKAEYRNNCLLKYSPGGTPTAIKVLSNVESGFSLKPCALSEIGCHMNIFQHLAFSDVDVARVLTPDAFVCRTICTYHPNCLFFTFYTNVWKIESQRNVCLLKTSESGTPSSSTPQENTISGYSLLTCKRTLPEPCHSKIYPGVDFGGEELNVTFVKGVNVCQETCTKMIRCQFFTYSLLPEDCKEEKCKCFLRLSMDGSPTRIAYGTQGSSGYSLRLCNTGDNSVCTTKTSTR
T2 sequence (P03952 391-638 limits assumed, form in doubt, chain 2 of 2): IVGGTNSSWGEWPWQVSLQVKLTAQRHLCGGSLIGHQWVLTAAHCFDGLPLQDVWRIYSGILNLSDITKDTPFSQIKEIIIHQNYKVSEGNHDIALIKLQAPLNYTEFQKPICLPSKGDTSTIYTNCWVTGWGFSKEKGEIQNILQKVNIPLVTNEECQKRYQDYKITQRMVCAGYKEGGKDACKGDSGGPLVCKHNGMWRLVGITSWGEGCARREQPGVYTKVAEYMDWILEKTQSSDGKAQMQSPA

Binder	Ki
B1	0.176 nM
B2	0.171 nM
B3	0.201 nM
B4	0.176 nM
B5	0.206 nM
B6	0.175 nM
B7	0.158 nM
B8	0.312 nM
B9	0.405 nM
B10	0.174 nM
B11	0.154 nM
B12	0.179 nM
B13	0.179 nM
B14	0.179 nM
B15	0.183 nM
B16	0.158 nM
B17	0.171 nM
B18	0.153 nM
B19	0.92 nM
B20	0.19 nM
B21	0.195 nM

target: T1, Factor XIIa (FXIIa); experiment: enzyme inhibition, corrected Ki,app

Binder	Ki
B1	0.084 nM
B2	0.161 nM
B3	0.235 nM
B4	0.028 nM
B5	0.288 nM
B6	0.389 nM
B7	0.172 nM
B8	0.409 nM
B9	1.93 nM
B10	0.163 nM
B11	0.465 nM
B12	0.107 nM
B13	0.1 nM
B14	0.063 nM
B15	0.167 nM
B16	0.195 nM
B17	0.028 nM
B18	0.034 nM
B19	0.357 nM
B20	0.312 nM
B21	0.205 nM
